# US20250026827A1 (Alector, published 2025)
# Where two headings read alike, the source gives them in different places.
# T1: mouse SIRPα on cells (mouse, UniProt P97797 32-513)
# T1 construct: whole, on cells
# T1 sequence (looked up): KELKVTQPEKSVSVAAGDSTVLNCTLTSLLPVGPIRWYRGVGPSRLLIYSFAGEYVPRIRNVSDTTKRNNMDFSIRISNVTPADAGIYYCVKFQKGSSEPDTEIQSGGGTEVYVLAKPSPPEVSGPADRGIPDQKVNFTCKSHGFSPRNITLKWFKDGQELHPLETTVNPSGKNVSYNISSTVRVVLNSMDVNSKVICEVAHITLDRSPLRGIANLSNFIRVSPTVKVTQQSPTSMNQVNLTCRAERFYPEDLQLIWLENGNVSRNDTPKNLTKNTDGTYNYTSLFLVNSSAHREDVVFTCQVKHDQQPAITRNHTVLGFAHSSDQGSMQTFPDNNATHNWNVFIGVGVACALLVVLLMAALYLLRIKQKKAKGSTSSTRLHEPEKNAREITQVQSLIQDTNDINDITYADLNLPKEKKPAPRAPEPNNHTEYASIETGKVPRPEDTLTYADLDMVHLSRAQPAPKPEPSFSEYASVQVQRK
# T2: mouse SIRPβ1 on CHO cells (mouse)
# T2 construct: Whole entry
# T2 chain: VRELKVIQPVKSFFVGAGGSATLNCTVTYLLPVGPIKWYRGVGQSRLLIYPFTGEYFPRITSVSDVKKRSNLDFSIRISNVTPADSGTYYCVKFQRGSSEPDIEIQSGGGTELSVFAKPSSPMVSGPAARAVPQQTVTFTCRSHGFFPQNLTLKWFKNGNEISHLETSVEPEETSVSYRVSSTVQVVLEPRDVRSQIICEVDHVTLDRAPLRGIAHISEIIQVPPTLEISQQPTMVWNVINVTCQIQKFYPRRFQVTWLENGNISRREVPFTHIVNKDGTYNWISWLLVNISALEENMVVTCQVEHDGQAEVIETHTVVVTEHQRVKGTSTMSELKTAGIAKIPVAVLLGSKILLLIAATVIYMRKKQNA
# T3: mouse SIRPα D1-Fc (mouse, UniProt P97797 32-150, limits assumed)
# T3 construct: domain: D1
# T3 sequence (looked up): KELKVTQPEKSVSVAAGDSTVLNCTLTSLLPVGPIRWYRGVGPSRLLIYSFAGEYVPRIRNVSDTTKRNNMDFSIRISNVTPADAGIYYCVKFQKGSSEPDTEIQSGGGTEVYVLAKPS
# Columns and labels:
# human SIRPα on cells [1] = target: T4, human SIRPα on cells (human, UniProt P78324 31-504); experiment: flow cytometry
# T4 construct: Whole entry
# mouse SIRPα on cells [2] = target: T1, mouse SIRPα on cells; experiment: flow cytometry;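 on FOB: antibodies tested at 1 µg/ml for 30 min on ice against receptor-expressing cells, detected with a PE-labelled secondary antibody, read as mean fluorescence intensity relative to background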
# [3] = target: T2, mouse SIRPβ1 on CHO cells; experiment: flow cytometry
# mouse SIRPα D1-Fc = target: T3, mouse SIRPα D1-Fc; experiment: Octet
# Experimental: Briefly, Octet affinity measurements were performed by loading IgGs on-line onto AHQ sensors. Sensors were equilibrated off-line in assay buffer for 30 min and then monitored on-line for 60 seconds for baseline establishment. For avid binding measurement, sensors with loaded IgGs were exposed to 100 nM antigen (human SIRPα domain 1 (D1) Fc fusion or SIRPβ1 domain 1 (D1) Fc fusion) for 3 min, and then transferred to assay buffer for 3 min for off-rate measurement. Additional avid binding was determined by loading biotinylated SIRPβ1 monomer on SA sensors and exposing to 100 nM IgG in solution. Monovalent binding measurements were obtained by loading human SIRPα- or SIRPβ1-Fc fusion antigens onto AHQ sensor, followed by exposure to 100 nM anti-SIRPβ1 antibody Fab. Additional monovalent measurements were made by loading biotinylated human SIRPα or SIRPβ1 monomer to SA sensor followed by exposure to 100 nM Fab in solution. Kinetics data were fit using a 1:1 binding model in the data analysis software provided by ForteBio (ForteBio Data Analysis Software 7.0).
# [4] = target: T5, human SIRPα domain 1 (D1) Fc fusion (human, UniProt P78324 32-149); experiment: Octet
# T5 construct: also called human SIRPα D1-Fc; Human SIRPα Fc; not shown: C-terminal human IgG1 Fc
# human SIRPα on cells [5] = target: T4, human SIRPα on cells; experiment: flow cytometry; remark: listed apart in the source
# mouse SIRPα on cells [6] = target: T1, mouse SIRPα on cells; experiment: flow cytometry; remark: listed apart in the source;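 on FOB: antibodies tested at 1 µg/ml for 30 min on ice against receptor-expressing cells, detected with a PE-labelled secondary antibody, read as mean fluorescence intensity relative to background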
# [7] = target: T2, mouse SIRPβ1 on CHO cells; experiment: flow cytometry
# [8] = target: T6, human SIRPβ1 isoform 1 on cells (human, UniProt O00241 30-398); experiment: flow cytometry
# T6 construct: On CHO cells (low level), on BWZ/BW5147.G.1.4 cells (reporter cells co-express human DAP12) or on primary human myeloid cells; also called huSIRPβ1; BWZ-huSIRPβ1
# T6 sequence (O00241 30-398): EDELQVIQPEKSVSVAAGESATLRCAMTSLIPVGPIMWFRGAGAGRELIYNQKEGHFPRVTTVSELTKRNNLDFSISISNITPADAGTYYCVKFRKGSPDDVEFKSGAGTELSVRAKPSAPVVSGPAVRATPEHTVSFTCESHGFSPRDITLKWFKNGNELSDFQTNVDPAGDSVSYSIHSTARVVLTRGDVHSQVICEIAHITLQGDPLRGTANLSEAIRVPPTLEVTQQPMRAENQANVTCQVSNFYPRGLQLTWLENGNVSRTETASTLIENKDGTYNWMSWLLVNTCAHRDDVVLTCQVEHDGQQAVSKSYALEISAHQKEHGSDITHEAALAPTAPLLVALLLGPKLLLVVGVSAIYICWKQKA
# [9] = target: T6, human SIRPβ1 isoform 1 on cells; experiment: cell-based or functional assay
# [10] = target: T7, human SIRPβ1-Fc isoform 3 (Q5TFQ8) (human, UniProt Q5TFQ8 30-371, limits assumed); experiment: ELISA on plate-coated huSirpB-Fc (Q5TFQ8.1), anti-human kappa-HRP, A450
# T7 construct: Whole entry named; made in HEK293 cells; also called human SIRPβ1 isoform 3
# T7 sequence (Q5TFQ8 30-371 limits assumed, one chain of several): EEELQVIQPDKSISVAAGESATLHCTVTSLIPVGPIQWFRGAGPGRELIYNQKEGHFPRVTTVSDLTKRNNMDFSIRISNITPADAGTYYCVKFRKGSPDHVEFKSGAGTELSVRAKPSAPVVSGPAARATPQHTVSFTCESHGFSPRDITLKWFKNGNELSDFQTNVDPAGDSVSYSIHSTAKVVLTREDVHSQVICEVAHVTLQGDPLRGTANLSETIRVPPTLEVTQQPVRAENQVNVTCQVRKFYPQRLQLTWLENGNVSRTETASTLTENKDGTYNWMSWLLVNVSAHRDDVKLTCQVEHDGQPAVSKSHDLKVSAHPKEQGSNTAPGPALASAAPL
# Experimental: To ascertain if the selected anti-SIRPβ1 antibodies cross-reacted with other isoforms of human SIRPβ1 or with cynomolgus SIRPβ1, recombinant antigens based on human SIRPβ1 isoform 3 sequence and cynomolgus SIRPβ1 isoform 1 sequence were produced by transient transfection in HEK293 cells. Purified, Fc-tagged recombinant proteins were adsorbed onto 96-well plates at 1 μg/mL overnight at 4° C. Plates were subsequently washed with PBS+0.05% Tween-20 and blocked with 1% BSA+PBS for 2 hours at room temperature. Antibodies diluted in blocking buffer at 1 μg/mL were added to wells, serially diluted, and allowed to bind antigen overnight at 4° C. The following day, the primary antibodies were removed and anti-human kappa light chain antibody conjugated to horseradish peroxidase diluted 1:10,000 in blocking buffer were added to wells and incubated for 1 hour at room temperature. Plates were washed with PBS+0.05% Tween-20 and 100 μL of TMB substrate solution was added to wells to generate a colorimetric signal proportional to amount of anti-SIRPβ1 antibody bound to antigen. Once the reaction reached an appropriate color intensity, 100 μL of Stop solution was added to quench the enzyme.
# (§1) Eight anti-SIRPβ1 antibodies (four parental antibodies and four corresponding affinity matured antibodies) were selected for analysis.
# human SIRPα on cells [11] = target: T4, human SIRPα on cells; experiment: flow cytometry; remark: listed apart in the source
# Experimental: (§2) Cells were then washed twice and incubated in 100 ul FACS buffer containing 0.5 μg/ml PE-conjugated secondary antibody for 30 minutes on ice. Cells were washed twice in cold FACS buffer and acquired on a BD FACS Canto. Data analysis and calculation of mean fluorescence intensity (MFI) values or 00 positive cells was performed with FlowJo (TreeStar) software version 10.0.7.
# (§3) Given the high sequence similarity between receptors of the SIRPβ family, anti-SIRPβ1 antibodies were also screened for cross-reactivity to human SIRPα.
# [12] = target: T2, mouse SIRPβ1 on CHO cells; experiment: flow cytometry
# Experimental: as §2, §3
# [13] = target: T6, human SIRPβ1 isoform 1 on cells; experiment: flow cytometry; remark: listed apart in the source
# Experimental: as §2, §3
# [14] = target: T5, human SIRPα domain 1 (D1) Fc fusion; experiment: Octet, IgG avid
# Experimental: (§4) Briefly, Octet® affinity measurements were performed by loading IgGs on-line onto AHQ sensors. Sensors were equilibrated off-line in assay buffer for 30 min and then monitored on-line for 60 seconds for baseline establishment. For avid binding measurement, sensors with loaded IgGs were exposed to 100 nM antigen (human SIRPα or SIRPβ1 Fc fusion) for 3 min, and then transferred to assay buffer for 3 min for off-rate measurement. Additional avid binding was determined by loading biotinylated SIRPβ1 monomer on SA sensors and exposuring to 100 nM IgG in solution. Monovalent binding measurements were obtained by loading human SIRPβ1 Fc fusion antigens to AHQ sensor, followed by exposure to 100 nM anti-SIRPβ1 antibody Fab. Additional monovalent measurements were made by loading biotinylated human SIRPβ1 monomer to SA sensor followed by exposure to 100 nM Fab in solution. Kinetics data were fit using a 1:1 binding model in the data analysis software provided by ForteBio.
# [15] = target: T8, Soluble, human SIRPβ1-Fc isoform 1 (O00241) (human, UniProt O00241 30-371, limits assumed); experiment: ELISA, antigen coated
# T8 construct: Whole entry named; also called human SIRPβ1 isoform 1
# T8 sequence (O00241 30-371 limits assumed, one chain of several): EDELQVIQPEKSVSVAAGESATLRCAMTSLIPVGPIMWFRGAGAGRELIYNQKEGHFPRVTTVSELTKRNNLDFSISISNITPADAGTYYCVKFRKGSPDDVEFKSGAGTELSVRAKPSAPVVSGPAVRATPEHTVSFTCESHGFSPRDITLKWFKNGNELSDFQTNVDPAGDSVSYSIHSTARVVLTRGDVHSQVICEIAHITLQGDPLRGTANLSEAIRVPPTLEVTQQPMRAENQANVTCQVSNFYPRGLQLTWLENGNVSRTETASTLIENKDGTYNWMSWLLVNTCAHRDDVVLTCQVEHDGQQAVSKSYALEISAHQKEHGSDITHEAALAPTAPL
# Text: Recombinant antigen based on the sequence of SIRPβ1 isoform 1 was used for selecting anti-SIRPβ1 antibodies from yeast library pools. To ascertain if the selected anti-SIRPβ1 antibodies cross-reacted with other isoforms of human SIRPβ1 or with cynomolgus SIRPβ1, recombinant antigens based on human SIRPβ1 isoform 3 sequence and cynomolgus SIRPβ1 isoform 1 sequence were produced by transient transfection in HEK293 cells. Purified, Fc-tagged recombinant proteins were adsorbed onto 96-well plates at 1 μg/mL overnight at 4° C. Plates were subsequently washed with PBS+0.05% Tween-20 and blocked with 1% BSA+PBS for 2 hours at room temperature. Antibodies diluted in blocking buffer at 1 μg/mL were added to wells, serially diluted, and allowed to bind antigen overnight at 4° C. The following day, the primary antibodies were removed and anti-human kappa light chain antibody conjugated to horseradish peroxidase diluted 1:10,000 in blocking buffer were added to wells and incubated for 1 hour at room temperature. Plates were washed with PBS+0.05% Tween-20 and 100 μL of TMB substrate solution was added to wells to generate a colorimetric signal proportional to amount of anti-SIRPβ1 antibody bound to antigen. Once the reaction reached an appropriate color intensity, 100 μL of Stop solution was added to quench the enzyme.
# as §1
# [16] = target: T6, human SIRPβ1 isoform 1 on cells; experiment: cell binding titration; target not given
# [17] = target: T9, human SIRPβ1 domain 1 (D1) Fc fusion (human, UniProt O00241 30-148); experiment: Octet, IgG avid
# T9 construct: Made in HEK293/T cells with a heterologous signal peptide; also called Human SIRPβ1 D1-Fc; Human SIRPβ1-Fc; not shown: C-terminal human IgG1 Fc
# T9 sequence (O00241 30-148 limits assumed): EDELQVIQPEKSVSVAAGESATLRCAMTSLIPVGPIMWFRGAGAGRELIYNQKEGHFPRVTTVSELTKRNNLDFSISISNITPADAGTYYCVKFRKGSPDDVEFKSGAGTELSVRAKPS
# human SIRPα on cells [18] = target: T4, human SIRPα on cells; experiment: flow cytometry on BWZ cells overexpressing human SIRPα, fluorescent secondary antibody, MFI
# Experimental: (§5) To determine antigen specificity of anti-SIRPβ1 antibodies of the present disclosure, cell-based affinity measurements were performed to ascertain the apparent affinities of affinity-matured anti-SIRPβ 1 antibodies to cell surface-expressed antigen. BW5147.G.1.4 cells, an immortalized mouse T-cell line, were engineered to overexpress human SIRPβ1 (BWZ-huSIRPβ1) or human SIRPα (BWZ-huSIRPα). Jurkat cells, an immortalized human T cell line, endogenously express SIRPγ.
# (§6) In these experiments, two antibodies previously described were used as positive controls: antibody 18D5 (an anti-SIRPβ antibody that cross-reacts with SIRPα and SIRPβ) and antibody KWAR23 (an anti-SIRPβ antibody that cross-reacts with SIRPα, SIRPβ, and SIRPγ). These antibodies were recombinantly produced on a human IgG4 backbone. […] Serial dilutions of each of the anti-SIRPβ1 monoclonal antibodies and control antibodies were added to 10⁵ cells and allowed to achieve binding equilibrium at 4° C. After addition of fluorescently-labeled secondary antibody and brief washing steps, MFI values as a function of titrated antibody concentration were recorded via FACS analysis.
# (§7) Receptor bound antibodies were detected by staining cells with anti-human IgG PE secondary antibody (Southern Biotech). Curves were fit using nonlinear regression analysis with Graphpad Prism 6 software.
# [19] = target: T6, human SIRPβ1 isoform 1 on cells; experiment: flow cytometry titration, BWZ-huSIRPβ1 cells
# Experimental: as §6
# In Table 14 below, EC50 values assign relative affinity by adding increasing concentrations of antibody variants to cells overexpressing SIRPβ 1. Receptor bound antibodies were detected by staining cells with anti-human IgG PE secondary antibody (Southern Biotech). Curves were fit using nonlinear regression analysis with Graphpad Prism 6 software.
# SIRPγ on Jurkat cells = target: T10, SIRPγ on Jurkat cells (human, UniProt Q9P1W8 29-387); experiment: flow cytometry on Jurkat cells (endogenous SIRPγ), fold over isotype (MFI)
# T10 construct: whole, on cells
# T10 sequence (Q9P1W8 29-387): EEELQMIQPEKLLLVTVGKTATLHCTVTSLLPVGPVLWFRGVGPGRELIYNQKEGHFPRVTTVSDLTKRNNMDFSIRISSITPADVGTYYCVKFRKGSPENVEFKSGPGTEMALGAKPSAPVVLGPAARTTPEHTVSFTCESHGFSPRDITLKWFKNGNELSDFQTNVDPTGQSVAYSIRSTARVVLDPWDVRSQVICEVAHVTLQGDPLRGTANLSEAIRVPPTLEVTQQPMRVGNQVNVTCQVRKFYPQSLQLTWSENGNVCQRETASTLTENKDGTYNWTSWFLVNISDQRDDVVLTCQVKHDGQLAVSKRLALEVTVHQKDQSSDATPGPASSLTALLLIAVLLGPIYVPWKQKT
# Experimental: as §5, §6, §7
# [20] = target: T9, human SIRPβ1 domain 1 (D1) Fc fusion; experiment: Octet, Fab monovalent
# Experimental: as §4
# Human SIRPβ HIS = target: T11, Human SIRPβ HIS (human, UniProt O00241 30-148, limits assumed); experiment: MSD-SET, Fab monovalent
# T11 construct: detected with streptavidin, so biotinylated; also called recombinant human SIRPβ1; human SIRPβ1 monomer
# T11 sequence (O00241 30-148 limits assumed): as the sequence (O00241 30-148 limits assumed) above
Binder,binding result (human SIRPα on cells [1]),binding result (mouse SIRPα on cells [2]),binding result [3],binding result (mouse SIRPα D1-Fc),FOB (human SIRPα on cells [5]) [fold over background],FOB (mouse SIRPα on cells [6]) [fold over background],FOB [7] [fold over background],FOB [8] [fold over background],binding result [10],FOB (human SIRPα on cells [11]) [fold over background],FOB [12] [fold over background],FOB [13] [fold over background],binding result [14],EC50 [15] [pM],EC50 [16] [pM],Kd [20] [pM],Kd (Human SIRPβ HIS) [pM],viable Raji-Luc cells with neutrophils and anti-CD20 [9] [%],other results
"SB-3 (antibody, V domains shown, IgG) VH: not shown VL: EIVMTQSPATLSLSPGERATLSCRASQSVSSYLAWYQQKPGQAPRLLIYDASNRATGIPARFSGSGSGTDFTLTISSLEPEDFAVYYCQQRLFHPPTFGGGTKVEIK",no binding (tested: 1 ug/ml),no binding (tested: 1 ug/ml),no binding (tested: 1 ug/ml),no binding (tested: 100 nM),1.8,1.3,1.3,2.5,,,,,,,,,,~50,binding result [4]: no binding (tested: 100 nM)
"SB-8-13 Fab (Fab, V domains shown, Fab by papain digestion) VH: QVQLQESGPGLVKPSETLSLTCAVSGYSISAHYYWGWIRQPPGKGLEWIGSIFHSGHTYYNPSLKSRVTISVDTSKNQFSLKLSSVTAADTAVYYCARGGAMTPAGMDVWGQGTTVTVSS VL: EIVMTQSPGTLSLSPGERATLSCRASQSVSSSYLAWYQQKPGQAPRLLIYGASNRATGIPDRFSGSGSGTDFTLTISRLEPEDFAVYYCQQVYSSPYTFGGGTKVEIK",,,,,,,,,,,,,,,,2850,63,,
"SB-8-15 Fab (Fab, V domains shown, Fab by papain digestion) VH: QVQLQESGPGLVKPSETLSLTCAVSGYSISAHYYWGWIRQPPGKGLEWIGSIYQSGHTYYNPSLKSRVTISVDTSKNQFSLKLSSVTAADTAVYYCARGGAMTPAGMDVWGQGTTVTVSS VL: EIVMTQSPGTLSLSPGERATLSCRASQSVSSSYLAWYQQKPGQAPRLLIYGASNRATGIPDRFSGSGSGTDFTLTISRLEPEDFAVYYCQQVYSSPYTFGGGTKVEIK",,,,,,,,,,,,,,,,3730,48,,
"SB-8-14 Fab (Fab, V domains shown, Fab by papain digestion) VH: QVQLQESGPGLVKPSETLSLTCAVSGYSISPHYYWGWIRQPPGKGLEWIGSIYHSGHTYYNPSLKSRVTISVDTSKNQFSLKLSSVTAADTAVYYCARGGAMTPAGMDVWGQGTTVTVSS VL: EIVMTQSPGTLSLSPGERATLSCRASQSVSSSYLAWYQQKPGQAPRLLIYGASNRATGIPDRFSGSGSGTDFTLTISRLEPEDFAVYYCQQVYSSPYTFGGGTKVEIK",,,,,,,,,,,,,,,,3250,53,,

# Second part, led by results:
binding result (human SIRPα on cells [1]),binding result (mouse SIRPα on cells [2]),binding result [3],binding result (mouse SIRPα D1-Fc),FOB (human SIRPα on cells [5]) [fold over background],FOB (mouse SIRPα on cells [6]) [fold over background],FOB [7] [fold over background],FOB [8] [fold over background],binding result [10],FOB (human SIRPα on cells [11]) [fold over background],FOB [12] [fold over background],FOB [13] [fold over background],binding result [14],EC50 [15] [pM],EC50 [16] [pM],Kd [20] [pM],Kd (Human SIRPβ HIS) [pM],Binder,viable Raji-Luc cells with neutrophils and anti-CD20 [9] [%],other results
no binding (tested: 1 ug/ml),no binding (tested: 1 ug/ml),no binding (tested: 1 ug/ml),no binding (tested: 100 nM),2.3,1.4,1.1,5.7,no binding (tested: 1 ug/mL),1,1,2,no binding (tested: 100 nM),34,72,,,"SB-1 (antibody, V domains shown, IgG; also called SB-1 (p)) VH: not shown VL: EIVMTQSPGTLSLSPGERATLSCRASQSVSSSYLAWYQQKPGQAPRLLIYGASSRATGIPDRFSGSGSGTDFTLTISRLEPEDFAVYYCQLLGSSPRTFGGGTKVEIK",~50,Kd [17]: 966 pM
no binding (tested: 1 ug/ml),no binding (tested: 1 ug/ml),no binding (tested: 1 ug/ml),no binding (tested: 100 nM),3,1.1,1.3,8.7,no binding (tested: 1 ug/mL),1,1,2,no binding (tested: 100 nM),32,235,,,"SB-2 (antibody, V domains shown, IgG; also called SB-2 (p)) VH: QVQLVESGGGVVQPGRSLRLSCAASGFTFSSYGMNWVRQAPGKGLEWVAVIWYDGSNKYYADSVKGRFTISRDNSKNTLYLQMNSLRAEDTAVYYCARDQTAAAAIWGMDVWGQGTTVTVSS VL: EIVLTQSPGTLSLSPGERATLSCRASQSVSSSYLAWYQQKPGQAPRLLIYGASSRATGIPDRFSGSGSGTDFTLTISRLEPEDFAVYYCQQSSSHPFTFGGGTKVEIK",~50,Kd [17]: 1970 pM
,,no binding (tested: 1 ug/ml),,,,,,no binding (tested: 1 ug/mL),1,2,7,no binding (tested: 100 nM),19,253,,,"SB-8-13 (antibody, V domains shown, IgG) VH: QVQLQESGPGLVKPSETLSLTCAVSGYSISAHYYWGWIRQPPGKGLEWIGSIFHSGHTYYNPSLKSRVTISVDTSKNQFSLKLSSVTAADTAVYYCARGGAMTPAGMDVWGQGTTVTVSS VL: EIVMTQSPGTLSLSPGERATLSCRASQSVSSSYLAWYQQKPGQAPRLLIYGASNRATGIPDRFSGSGSGTDFTLTISRLEPEDFAVYYCQQVYSSPYTFGGGTKVEIK",,binding result (human SIRPα on cells [18]): no binding (tested: Log nM about 0.8 (about 7 nM)); EC50 [19]: 199 pM; binding result (SIRPγ on Jurkat cells): no binding (tested: Log nM about 1.8 (about 60 nM))
no binding (tested: 1 ug/ml),no binding (tested: 1 ug/ml),no binding (tested: 1 ug/ml),no binding (tested: 100 nM),2,0.9,1.2,1.7,,,,,,,,,,"SB-4 (antibody, V domains shown, IgG) VH: QVQLVQSGAEVKKPGASVKVSCKASGYTFTSYGISWVRQAPGQGLEWMGWISAYNGNTNYAQKLQGRVTMTTDTSTSTAYMELRSLRSDDTAVYYCARSGTHFGTYSYSNWFDPWGQGTLVTVSS VL: EIVLTQSPGTLSLSPGERATLSCRASQSVSSSYLAWYQQKPGQAPRLLIYGASSRATGIPDRFSGSGSGTDFTLTISRLEPEDFAVYYCQQYADAPITFGGGTKVEIK",~50,binding result [4]: no binding (tested: 100 nM)
